Results on one substance are retold here after patent US20140363441A1 (priority 2013, published 2014).

In the experiment the target is M2 protein of influenza A/Puerto Rico/8/34 (H1N1) on the surface of infected MDCK cells or transfected cells (influenza A virus H1N1 A/Puerto Rico/8/34) (UniProt P06821). Nature of the experiment: flow cytometry, PR8-infected MDCK cells. A general note: Flow cytometry measures light scatter and fluorescence of single cells or particles in a stream.
UniProt P06821, sequence (P06821 whole entry): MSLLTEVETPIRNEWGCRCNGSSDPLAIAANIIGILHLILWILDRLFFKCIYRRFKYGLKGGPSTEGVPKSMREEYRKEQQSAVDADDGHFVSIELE

As usually defined, the EC50 (read off the curve) is the concentration that produces a half-maximal response. The substance “chimeric mouse V-region/human IgG1 kappa 14C2 antibody” gave an EC50 (read off the curve) of 0.3 µg/mL.
